Values quoted from earlier work as cited in PMC6008173.
pKd: −log10 of the molar value.

Biological target: PCDH15 EC1-2 (Mus musculus) (UniProt Q99PJ1)

pKd: 5.52
Substance: CDH23 EC1-2 (from UniProt Q99PF4)
